Measured values as given in patent US20190233540A1 (JUNSHI BIOSCIENCES, published 2019).

How the values were obtained:
[1] = biological target: T1, human PCSK9 D347Y recombinant protein (human, UniProt Q8NBP7 31-692, biotin label (sites not given) in Examples 3 and 9); experiment: cell-based or functional assay
[2] = biological target: T1, human PCSK9 D347Y recombinant protein; experiment: competition ELISA, biotin-labeled PCSK9 (D347Y by the legend) captured on streptavidin, antibody titrated in 200 ng/ml reference antibody, bound reference antibody detected with anti-human IgG-Fc; competitor: reference antibody; unit taken from the axis log(ng/ml)
[3] = biological target: T1, human PCSK9 D347Y recombinant protein; experiment: ELISA, biotin-labeled PCSK9 (D347Y by the legend) at 2 ug/ml captured on streptavidin, antibody titrated; unit taken from the axis log(ng/ml)
[4] = biological target: T1, human PCSK9 D347Y recombinant protein; experiment: ELISA, antibody coated at 1 ug/ml, biotin-labeled PCSK9 (D347Y by the legend) titrated, HRP-streptavidin; the concentration is that of PCSK9; unit taken from the axis log(pg/ml)
[5] = biological target: T1, human PCSK9 D347Y recombinant protein; experiment: cell-based or functional assay; remark: listed apart in the source
[6] = biological target: T2, human PCSK9 recombinant protein (human PCSK9 extracellular region protein) (human, UniProt Q8NBP7 31-692, biotin label (biotin-xx-NHS, sites not stated) in the ELISA and flow cytometry assays); experiment: ELISA, biotin-labeled PCSK9 at 2 ug/ml captured on streptavidin, antibody titrated; unit taken from the axis log(pg/ml)
T2 construct: extracellular domain; The tag from the vector pSec CAGA2 ECD is not described; PCSK9 is a secreted protein; also called hPCSK9; HPCSK9
T2 sequence (Q8NBP7 31-692 limits assumed): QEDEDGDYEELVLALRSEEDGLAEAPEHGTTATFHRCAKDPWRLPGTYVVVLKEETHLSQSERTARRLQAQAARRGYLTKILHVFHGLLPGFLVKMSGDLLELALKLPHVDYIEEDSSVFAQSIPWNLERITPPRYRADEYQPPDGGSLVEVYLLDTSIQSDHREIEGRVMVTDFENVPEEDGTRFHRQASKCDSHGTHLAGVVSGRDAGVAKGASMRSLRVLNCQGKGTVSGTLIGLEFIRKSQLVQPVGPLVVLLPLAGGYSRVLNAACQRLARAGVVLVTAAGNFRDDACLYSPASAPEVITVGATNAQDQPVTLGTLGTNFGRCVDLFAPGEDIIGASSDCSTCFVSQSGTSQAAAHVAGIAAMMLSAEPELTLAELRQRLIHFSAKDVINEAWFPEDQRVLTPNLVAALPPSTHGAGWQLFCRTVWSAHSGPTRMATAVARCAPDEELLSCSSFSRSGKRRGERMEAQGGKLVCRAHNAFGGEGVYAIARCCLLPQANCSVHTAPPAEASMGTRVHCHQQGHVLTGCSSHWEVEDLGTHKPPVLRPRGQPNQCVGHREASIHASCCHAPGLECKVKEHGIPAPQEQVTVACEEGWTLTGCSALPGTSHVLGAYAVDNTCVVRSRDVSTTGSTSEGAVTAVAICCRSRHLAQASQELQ

[7] = biological target: T2, human PCSK9 recombinant protein (human …); experiment: ForteBio instrument (BLI)
[8] = biological target: murine-derived PCSK9 (murine, UniProt Q80W65 35-694, limits assumed); experiment: ELISA, species cross-reactivity
murine-derived PCSK9, sequence (Q80W65 35-694 limits assumed): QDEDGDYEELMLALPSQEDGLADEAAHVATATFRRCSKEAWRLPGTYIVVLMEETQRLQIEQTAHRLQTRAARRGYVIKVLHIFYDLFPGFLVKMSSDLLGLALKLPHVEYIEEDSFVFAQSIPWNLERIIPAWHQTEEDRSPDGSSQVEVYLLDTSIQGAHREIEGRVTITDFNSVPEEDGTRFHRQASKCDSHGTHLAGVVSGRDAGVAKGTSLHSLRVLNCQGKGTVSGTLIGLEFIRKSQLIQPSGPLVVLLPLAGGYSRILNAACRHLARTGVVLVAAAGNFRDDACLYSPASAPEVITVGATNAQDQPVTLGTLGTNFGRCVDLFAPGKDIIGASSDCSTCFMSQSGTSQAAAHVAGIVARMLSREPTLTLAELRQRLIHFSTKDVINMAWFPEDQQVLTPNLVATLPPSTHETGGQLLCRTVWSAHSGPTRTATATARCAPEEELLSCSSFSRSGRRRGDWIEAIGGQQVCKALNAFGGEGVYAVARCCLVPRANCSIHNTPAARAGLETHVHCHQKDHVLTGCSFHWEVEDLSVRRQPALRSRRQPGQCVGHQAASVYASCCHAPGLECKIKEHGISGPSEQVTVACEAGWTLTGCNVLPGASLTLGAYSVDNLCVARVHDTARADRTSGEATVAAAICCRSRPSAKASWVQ

[9] = biological target: T1, human PCSK9 D347Y recombinant protein; experiment: competition ELISA, biotin-labeled PCSK9 (D347Y by the legend) captured on streptavidin, antibody titrated in 200 ng/ml reference antibody, bound reference antibody detected with anti-human IgG-Fc; competitor: reference antibody; unit taken from the axis log(ng/ml); the curve is nearly flat (OD450 about 1.2 to 1.1), ambiguous fit
[10] = biological target: T2, human PCSK9 recombinant protein (human …); experiment: ELISA, biotin-labeled PCSK9 at 0.2 ug/ml captured on streptavidin, antibody titrated; unit taken from the axis LOG (pg/mL)

T1 sequence (Q8NBP7 31-692 D374Y): as the sequence (Q8NBP7 31-692 limits assumed) above, with D344Y counted along it

| IC50(nM), LDL uptake of HepG2 cells (FL-LDL fluorescence) [1] | IC50 [2] | EC50 [3] | EC50 [4] | IC50, LDL uptake of HepG2 cells [5] | EC50 [6] | Kd [7] | binding result [8] | IC50 [9] | IC50, LDL uptake of HepG2 cells (Dil-LDL fluorescence) [5] | EC50 [10] | Binder |
| --- | --- | --- | --- | --- | --- | --- | --- | --- | --- | --- | --- |
| 5.5 nM | 0.0766 µg/mL | 0.223 µg/mL | 0.0835 µg/mL | ~1 µg/mL | 0.078 µg/mL | 0.28 nM | – | – | – | – | 3G12 murine-derived anti-PCSK9 monoclonal antibody (antibody, V domains shown, Mouse hybridoma antibody) VH: QVQLKQSGPSLLQPSQSLSITCTVSGFSLTSYGIHWVRQSPGKGLEWLGVIWRGGITDYNAPFMSRLNITKDNSKNQVFFKMNSLQVDDTAIYYCANHRDWGQGTLVTVSA VL: DIQMTQSPSSLSASLGGKVTITCKASQDINKYIDWYQHKPGKSPRLLIHYASTLQPGIPSRFSGSGSGRDYSFSISNLEPEDIATYYCLQYDDLWTFGGGTKLEIK |
| – | – | – | – | – | 0.0338 µg/mL | – | – | – | – | – | 3G12 chimeric antibody (antibody, V domains shown) VH: QVQLKQSGPSLLQPSQSLSITCTVSGFSLTSYGIHWVRQSPGKGLEWLGVIWRGGITDYNAPFMSRLNITKDNSKNQVFFKMNSLQVDDTAIYYCANHRDWGQGTLVTVSA VL: DIQMTQSPSSLSASLGGKVTITCKASQDINKYIDWYQHKPGKSPRLLIHYASTLQPGIPSRFSGSGSGRDYSFSISNLEPEDIATYYCLQYDDLWTFGGGTKLEIK |
| – | 0.808 µg/mL | 0.251 µg/mL | 0.752 µg/mL | ~1 µg/mL | – | 0.91 nM | – | – | – | – | 1A5 murine-derived anti-PCSK9 monoclonal antibody (antibody, V domains shown, Mouse hybridoma antibody) VH: QVQLKQSGPSLVQPSQSLSITCTVSGFSLTSYGVHWVRQSPGKGLEWLGVIWRGGSTDYNAAFMSRLSITKDNSKSQVFFKMNSLQADDTAIYYCANHRDWGQGTLVTVSA VL: DIQMTQSPSSLSASLGDKVTITCKASQDINKYIDWYQHKPGKGPRLLIHYTSTLQPGIPSRFSGSGSGRDYSFSISNLEPEDIATYYCVQYDDLWTFGGGTKLEIK |
| – | – | 0.023 µg/mL | 0.0389 µg/mL | ~1 µg/mL | – | 0.49 nM | – | – | – | – | 2B12 murine-derived anti-PCSK9 monoclonal antibody (antibody, V domains shown, Mouse hybridoma antibody) VH: DVQLQESGPGLVKPSQSLSLTCSVTGFSITSDYAWNWIRQFPGNKLEWMGYISYSGTTNYNPSLKSRISITRDTSKNQFFLHLNSVITEDTATYYCARREGHYSWFPYWGQGTLVTVSA VL: DIVLTQSPASLAVSLGQRATISCRASESVEYYGTSLMHWYQHKPGQTPKLLIYSGSNVESGVPARFSGSGSGTDFSLNIHPVEEDDIAMYFCQQSREVPSTFGGGTKLEIK |
| – | 0.675 µg/mL | 0.318 µg/mL | 0.666 µg/mL | ~1 µg/mL | – | 0.9 nM | – | – | – | – | 1B5 murine-derived anti-PCSK9 monoclonal antibody (antibody, V domains shown, Mouse hybridoma antibody) VH: DVQLQESGPGLVKPSQSLSLTCTVTGYSITSDYAWNWIRQFPGNKVEWMGYISYSGSSSYNPSLKGRISITRDTSKNQFFLQLNSVTTEDTATYYCARFYYRFDAYFDSWGQGTTLTVSS VL: not shown |
| – | – | – | 0.143 µg/mL | ~1 µg/mL | – | 4.7 nM | no binding | ~0.227 µg/mL | – | – | 1B11 murine-derived anti-PCSK9 monoclonal antibody (antibody, V domains shown, Mouse hybridoma antibody) VH: QVQLQQSGAVLVRPGTSIKVSCKASGYAFTNYLIEWIKKRPGQGLEWIGMINPGSGDTNFNEKFKAKATLTADKSSTTAYMQLNSLTFDDSAVYFCARSSQLGLPYWGQGTLVTVSA VL: DIQMTQSPASLSASVGETVTITCRASENIYSYLAWYQQKQENSPQLLVYNAYTLADGVPSRFSGSGSGTQFSLKIISLQPEDFGNYYCQHHYRTPPTFGGGTKLEIK |
| – | – | – | – | – | – | – | – | – | ~1 µg/mL | 0.00516 µg/mL | humanized anti-PCSK9 antibody clone 32 (antibody, V domains shown, also called humanized antibody) VH: QVQLQESGPGLVKPSQTLSLTCTVSGFSISSYGIHWIRQSPGKGLEWIGVIWRGGITDYNAPFMSRVTISKDNSKNQVSFKLSSVTAADTAVYYCANHRDWGQGTLVTVSS VL: DIQMTQSPSSLSASVGDRVTITCQASQDINKYIDWYQHKPGKAPKLLIHYASTLQPGVPSRFSGSGSGRDYTFTISSLQPEDIATYYCLQYDDLWTFGQGTKVEIK |
| – | – | – | – | – | – | – | – | – | ~1 µg/mL | 0.00481 µg/mL | humanized anti-PCSK9 antibody clone 77 (antibody, V domains shown, It shares its light chain with clone 32; also called humanized antibody) VH: QVQLQESGPGLVKPSQTLSLTCTVSGFSISSYGVHWIRQSPGKGLEWIGVIWRGGSTDYNAAFMSRVTISKDNSKNQVSFKLSSVTAADTAVYYCANHRDWGQGTLVTVSS VL: DIQMTQSPSSLSASVGDRVTITCQASQDINKYIDWYQHKPGKAPKLLIHYASTLQPGVPSRFSGSGSGRDYTFTISSLQPEDIATYYCLQYDDLWTFGQGTKVEIK |
